Assay results from the supplement of paper PMC9732359.
± gives the uncertainty stated by the source.

Assay: protein stability index of a GFP-peptide fusion (yeast GPS) (PSI 1-4); higher = more stable; sorted into four equal gates, so the index is relative within each strain
Procedure, shortened: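 Mid-log yeast cultures in leucine-free medium, carrying a pooled plasmid library, were sorted into four equal gates by their GFP/Cherry fluorescence ratio. Each plasmid expressed Cherry along with GFP fused upstream of a tiled 17-residue yeast protein peptide. Plasmids recovered from each gate were PCR-amplified and Illumina-sequenced, with reads assigned to strains by barcodes. The protein stability index was obtained by summing each gate's read frequency weighted by its gate number.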

Sequence | protein stability index (doa10∆) | protein stability index (pdr5∆) | protein stability index (san1∆) | protein stability index (ubr1∆)
KKFDISNDNLDLISEIL [MED1] | 2.77 ± 0.067 | 2.89 ± 0.058 | 2.84 ± 0.061 | 3 ± 0.049
KKHKQKKVLEIDFFKTD [BRN1] | 2.54 ± 0.037 | 2.67 ± 0.043 | 2.83 ± 0.039 | 2.59 ± 0.035
KKIAQRERRAALTDFER [RPL14A] | 3.09 ± 0.3 | 3.46 ± 0.19 |  | 
KKIVDDTIMENPEPNKK [IRR1] | 2.14 ± 0.071 | 2.81 ± 0.054 | 2.53 ± 0.084 | 2.59 ± 0.078
KKKDPVNQDKANNASQI [SNF12] | 3.02 ± 0.093 | 3.22 ± 0.11 | 3.19 ± 0.075 | 3.19 ± 0.068
KKLSKKYNAFIASEVLI [RPL1A] | 1.45 ± 0.026 | 1.9 ± 0.025 | 1.8 ± 0.052 | 1.67 ± 0.023
KKPRKPRQTKKAKAQAQ [PGD1] | 3.2 ± 0.13 | 3.48 ± 0.096 | 3.22 ± 0.062 | 3.12 ± 0.1
KKQAQKQTKLRKEKEKK [SMB1] | 3.04 ± 0.27 |  | 2.46 ± 0.3 | 
KKQNLSSHQRVFKLSTN [SWP82] | 1.94 ± 0.052 | 2.08 ± 0.052 | 2.05 ± 0.068 | 2.06 ± 0.043
KKQPSILVGGTLKDYQI [SNF2] | 2.31 ± 0.11 | 2.71 ± 0.099 | 2.35 ± 0.11 | 2.47 ± 0.083
KKQVHVYRFVTENAIEE [ISW2] | 1.68 ± 0.07 | 1.77 ± 0.075 | 1.87 ± 0.12 | 1.91 ± 0.045
KKRKAGRPRGRPKKVKL [SNF2] |  | 3.09 ± 0.12 | 2.96 ± 0.21 | 2.9 ± 0.11
KKRKNKSSGSSMATPTH [ROX3] | 2.99 ± 0.071 | 3.12 ± 0.077 | 2.96 ± 0.051 | 3.28 ± 0.063
KKRREYFPEGYNNKVGV [SIR2] | 2.42 ± 0.13 | 3.56 ± 0.19 | 2.54 ± 0.2 | 2.69 ± 0.047
KKRSKARKETYSSYIYK [HTB1] | 2.84 ± 0.24 | 2.9 ± 0.15 |  | 2.95 ± 0.15
KKSLEEDDEFEDFPIDT [SEM1] | 3 ± 0.13 | 3.02 ± 0.13 | 2.66 ± 0.14 | 3.02 ± 0.088
KKSRLGNSFHLMRELLK [PRP8] | 2.58 ± 0.04 | 2.71 ± 0.046 | 2.39 ± 0.049 | 2.55 ± 0.043
KKTKFLSPSGHKTFLVA [RPL32] |  |  | 1.44 ± 0.27 | 
KKVNYKVTSYDITGDIR [ISW2] | 2.72 ± 0.058 | 2.51 ± 0.055 | 2.83 ± 0.068 | 2.67 ± 0.051
KKVQALQSDKNFLDNCL [ITC1] | 3.13 ± 0.084 | 2.83 ± 0.05 | 2.83 ± 0.046 | 3.05 ± 0.036
KKVVKKAFEERHQAGKN [RPL27A] |  | 3.83 ± 0.22 |  | 
KLAAIVEIIDQKKVLID [RPL14A] | 2.8 ± 0.18 | 2.69 ± 0.088 | 2.91 ± 0.072 | 2.73 ± 0.062
KLAKNLQIGDVVERHLE [RPO31] | 3.25 ± 0.15 | 3.49 ± 0.12 | 3.31 ± 0.069 | 3.2 ± 0.12
KLASTLEKISSSNKDLE [SMC4] | 3.09 ± 0.053 | 2.68 ± 0.067 | 2.96 ± 0.038 | 2.82 ± 0.056
KLDIISDPESERPAIEF [RPN14] | 2.94 ± 0.045 | 3.05 ± 0.05 | 3.03 ± 0.04 | 3.18 ± 0.039
KLDKQINMADRSLGLQQ [POP6] | 3.02 ± 0.12 | 3.46 ± 0.21 | 3.02 ± 0.16 | 3.62 ± 0.26

Sequence | protein stability index (doa10∆) | protein stability index (pdr5∆) | protein stability index (san1∆) | protein stability index (ubr1∆)
KLDQDDEIYIPINGNEA [CSI1] | 3.24 ± 0.15 | 3.46 ± 0.091 | 3.19 ± 0.09 | 3.45 ± 0.072
KLEKLRNEKRMFLEFQS [SMC2] | 2.88 ± 0.13 | 3.3 ± 0.08 | 3.15 ± 0.12 | 3.49 ± 0.092
KLGIESKQPNSAIRKCV [RPS23A] | 3.21 ± 0.11 | 3.25 ± 0.12 | 3.02 ± 0.12 | 3.41 ± 0.054
KLHEFYLLISKENKKRK [IRR1] | 2.96 ± 0.081 | 2.65 ± 0.066 | 2.89 ± 0.051 | 3.04 ± 0.067
KLKECPFDMGGYFIING [RPB2] | 3 ± 0.078 | 3.07 ± 0.082 | 2.72 ± 0.073 | 3.07 ± 0.051
KLKNNASRSQLEKGEIE [YJL039C/NUP192] | 3.18 ± 0.11 | 2.98 ± 0.1 | 2.66 ± 0.083 | 3.08 ± 0.087
KLLAISKFNNADDVFTG [RPC31] | 3.03 ± 0.15 | 2.9 ± 0.2 | 2.92 ± 0.13 | 2.57 ± 0.12
KLLAKELEEQESESERK [SMC2] | 2.71 ± 0.13 | 3.23 ± 0.089 | 2.46 ± 0.16 | 3.14 ± 0.1
KLLNDLALENGEITKTE [NUT1] | 3.13 ± 0.15 | 3.09 ± 0.22 | 2.78 ± 0.2 | 3.18 ± 0.086
KLLTPQDMEAAKEVYKI [GAL11] | 3.13 ± 0.14 | 3.33 ± 0.14 | 3.43 ± 0.084 | 3.49 ± 0.11
KLNTFENDLLQEFDSEL [SMC3] | 3.22 ± 0.13 | 3.3 ± 0.11 | 3.03 ± 0.1 | 2.78 ± 0.1
KLPKVYKRSIVRNYKPL [SWI1] | 2.8 ± 0.086 | 2.99 ± 0.089 | 2.89 ± 0.074 | 2.96 ± 0.12
KLRSELGYKDTSVIQDL [BRR2] | 2.74 ± 0.13 | 2.22 ± 0.083 | 2.69 ± 0.072 | 2.96 ± 0.083
KLSKVQLYEDLCRYEDT [MED4] | 2.88 ± 0.069 | 3.29 ± 0.12 | 3.32 ± 0.11 | 3.21 ± 0.071
KLSSAENANADLENKFN [YIL149C/MLP2] | 3.06 ± 0.063 | 3.31 ± 0.073 | 3.07 ± 0.062 | 3.1 ± 0.042
KLTVCFDDILKVGAEMM [MED2] | 1.97 ± 0.07 | 1.95 ± 0.06 | 1.89 ± 0.11 | 2 ± 0.041
KLWAEIIVKILYYRPHI [GRR1] | 1.4 ± 0.064 | 2.02 ± 0.071 | 1.19 ± 0.15 | 1.46 ± 0.073
KLYKTPIPIPAFADRLG [PRE10] | 1.5 ± 0.11 | 1.29 ± 0.076 | 1.04 ± 0.18 | 1.46 ± 0.2
KMENLMRLIKRVRAESL [YJL039C/NUP192] | 1.49 ± 0.083 | 1.19 ± 0.1 | 1.32 ± 0.23 | 1.12 ± 0.099
KMLKIWTMAFRTMDDIK [ECM29] | 2.03 ± 0.11 | 1.76 ± 0.1 | 2.06 ± 0.12 | 1.96 ± 0.075
KMLMNLHKEQWQSGLKM [RPN11] | 2.14 ± 0.048 | 2.05 ± 0.04 | 2.4 ± 0.039 | 2.13 ± 0.035
KNGALVSNILSAFKFIH [YJL039C/NUP192] | 1.71 ± 0.055 | 1.65 ± 0.046 | 1.51 ± 0.065 | 1.3 ± 0.036
KNHTHNLPGNITVVLGV [RRP4] | 2.3 ± 0.14 | 2.68 ± 0.084 | 2.32 ± 0.17 | 2.66 ± 0.078
KNLIQLISLKLLTFEVT [SRB8] | 1.28 ± 0.081 | 1.19 ± 0.054 | 1.24 ± 0.13 | 1.1 ± 0.071
KNLVKVLESRVNARDIP [CSN12] |  | 1.94 ± 0.19 | 2.03 ± 0.2 | 1.76 ± 0.16
KNNILGSNVLKSGKTIV [RRP43] | 3.05 ± 0.039 | 3.11 ± 0.044 | 3.04 ± 0.043 | 3.076 ± 0.03
